Patent publication US20130071835A1, “Qualitative and Quantitative Analytical Method for Analyzing the Activity Type of an Enzyme that is Activated by Proteolysis” (Nanoenteck, Inc., priority 2010, published 2013)

Molecular target: T1, Lp-PLA2 (Homo sapiens, UniProt Q13093)
T1 construct: purchased diaDexus, USA
T1 sequence (Q13093 22-441): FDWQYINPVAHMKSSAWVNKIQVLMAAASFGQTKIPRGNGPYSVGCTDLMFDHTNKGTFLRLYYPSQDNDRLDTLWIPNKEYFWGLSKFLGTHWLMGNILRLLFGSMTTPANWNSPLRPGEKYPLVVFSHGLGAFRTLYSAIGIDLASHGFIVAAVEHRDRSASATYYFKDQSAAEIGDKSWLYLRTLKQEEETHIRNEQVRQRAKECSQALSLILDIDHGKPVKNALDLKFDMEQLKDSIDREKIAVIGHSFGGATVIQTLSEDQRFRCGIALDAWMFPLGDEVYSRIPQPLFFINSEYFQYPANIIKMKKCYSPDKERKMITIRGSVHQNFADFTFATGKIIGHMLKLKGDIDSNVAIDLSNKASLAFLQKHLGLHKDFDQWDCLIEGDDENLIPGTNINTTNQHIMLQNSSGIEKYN
Assay: Competition binding of Lp-PLA2 to Apo C-III-coated microplate (ELISA, absorbance)
Procedure: After Apo C-III was diluted with 100 mM carbonate buffer (pH 9.5) at a concentration of 2 μg/ml, the Apo C-III solution (100 μl) was added to each well in a microplate, which was coated at 37° C. incubator for 2 hrs. And then, the Apo C-III solution was removed from each well and 200 μl PBS supplemented with 1% BSA was added to each well. After incubation at 37° C. incubator, the solution was removed from each well that was then dried.
Tween-20 (0.05%)-containing PBS buffer (pH 7.4) was used for dilution, reaction and washing buffer in the experiment. Each 100 μl Lp-PLA2 (1 μg/ml) was added to Apo C-III-coated microplate well (FIG. 2a). Or, Lp-PLA2 and Apo C-III was diluted at a final concentration of 1 μg/ml and 0.5 μg/ml, respectively, and the solution (100 μl) was added to Apo C-III-coated microplate well (FIG. 2b). Each reaction preparation was incubated at 37° C. incubator for 50 min, and then removed from the well, followed by washing 2 times. Anti-Lp-PLA2 antibody solution (100 μl) diluted to 5 μg/ml was added to the washed well and incubated at 37° C. incubator for 50 min. The solution was removed and each well was washed 2 times. […] After 100 μl H2SO4 (2 N) was added to each washed well, the absorbance was measured. The measurement of absorbance utilized TECAN Infinit M200: wavelength measurement, 450 nm; and calibration wavelength, 620 nm. […]

## Apolipoprotein C-III [Apo C-III]
Lp-PLA2 1 μg/ml plus free Apo C-III 0.5 μg/ml added to Apo C-III-coated microplate well, Lp-PLA2 alone gave 0.208
  Final signal intensity (absorbance: Ab 620 nm), mean: 0.130
Lp-PLA2 1 μg/ml plus free Apo C-III 0.5 μg/ml, Apo C-III-coated microplate
  reduction of signal compared with sample without free Apo C-III: 37.6%
